Test system: Aβ40 (t=0 days), Aβ42 (t=0 days), Aβ42 (t=24 days)
Assay: SPRi interaction with the three immobilized Aβ forms
Format: binding, human
Details: analyte flowed onto the SPRi chip for 10 minutes, all three Aβ forms

Aβ40 (t=0 days), Aβ42 (t=0 days), Aβ42 (t=24 days), sequence (P05067 672-711 limits assumed): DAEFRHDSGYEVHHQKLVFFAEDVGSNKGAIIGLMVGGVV

B1: ovalbumin: non-correlated protein used as negative control sample in SPRi (Sigma-Aldrich, A5503) (protein)
chain: GSIGAASMEFCFDVFKELKVHHANENIFYCPIAIMSALAMVYLGAKDSTRTQINKVVRFDKLPGFGDSIEAQCGTSVNVHSSLRDILNQITKPNDVYSFSLASRLYAEERYPILPEYLQCVKELYRGGLEPINFQTAADQARELINSWVESQTNGIIRNVLQPSSVDSQTAMVLVNAIVFKGLWEKAFKDEDTQAMPFRVTEQESKPVQMMYQIGLFRVASMASEKMKILELPFASGTMSMLVLLPDEVSGLEQLESIINFEKLTEWTSSNVMEERKIKVYLPRMKMEEKYNLTSVLMAMGITDVFSSSANLSGISSAESLKISQAVHAAHAEINEAGREVVGSAEAGVDAASVSEEFRADHPFLFCIKHIATNAVLFFGRCVSP
In the case of B1, the SPRi interaction signal is reported as “did not produce interaction signals”.

Reference: US20190015361A1 (Maxwell Biosciences, Inc., priority 2017, published 2019)
